Values belong to the binder of their own block, whether it stands above or below them.
Tests used:
[1] = target: T1, human PD-1, full length, on cells (human, UniProt Q15116 25-288); assay: flow cytometry on activated human PBMCs (MFI)
T1 construct: whole, on cells; in the lymphocyte assays the natural PD-1 of human T cells/PBMCs; also called hPD-1; CHO-K1-hPD-1

[2] = target: T2, His-tagged human PD-1 ECD protein (human, UniProt Q15116 25-167); assay: SPR Biacore T200, antibody captured by anti-human Fc, His-tagged hPD-1 ECD as analyte
T2 construct: also called His-tagged hPD-1 ECD; His-tagged PD-1^ECD; not shown: His tag
Method: Anti-human Fc IgG was immobilized on flow cells 1 and 2: HBS-EP+(10 mM HEPES, 150 mM NaCl, 3 mM EDTA, 0.05% P20, pH 7.4) was used as running buffer, and the immobilization of anti-human Fc IgG was carried out using the immobilization wizard template. Flow cells 1 and 2 of a Series S CM5 sensor chip were activated with freshly-mixed 50 mmol/L NHS and 200 mmol/L EDC. 20 ug/mL of anti-human Fc IgG diluted in 10 mM NaAC (pH 4.5) was injected into the activated flow cells 1 and 2. The remaining active coupling sites were blocked with 1M ethanolamine.
Recombinant His-tagged hPD-1 ECD protein was diluted to 50 nM, followed by four 2-fold serial dilutions with HBS-EP+ buffer. […] KD measurements were carried out with HBS-EP+ as the running buffer. Each antibody was injected over the CM5 sensor flow cell 2 with a flow rate of 10 uL/min to reach response 230 RU. Prepared His-tagged hPD-1 ECD protein was then injected over flow cells 1 and 2, at a flow rate of 30 uL/min for 180 sec. Buffer flow was maintained for 400 seconds for dissociation measurements (30 uL/min). To remove the tested antibody from the surface, 10 mM glycine-HCl pH 1.5 was injected for 20 seconds (30 uL/min). Flow cell 1 was used as reference flow cell. The above steps were repeated for each concentration of serially-diluted His-tagged PD-1^ECD protein. The KD value for each antibody was evaluated using Biacore T200 evaluation software 1.0, and the data was fit with a 1:1 binding model.

[3] = target: T1, human PD-1, full length, on cells; assay: flow cytometry on CHO-K1-hPD-1 cells
[4] = target: T3, cyno monkey PD-1^ECD-hFc protein (cyno monkey, UniProt B0LAJ3 25-167); assay: ELISA, coated cyno PD-1ECD-hFc
T3 construct: also called cyno PD-1^ECD-hFc; not shown: human IgG Fc fragment (hFc) and its junction to the ECD

[5] = target: T4, NC-Fc; assay: ELISA, coated protein, antibody concentration not given
T4 construct: seemingly a negative control Fc protein

[6] = target: T5, human PD-1^ECD-hFc protein (Immunogen A) (human, UniProt Q15116 25-167); assay: as above
T5 construct: also called PD-1-hFc; hPD-1^ECD-hFc; not shown: human IgG Fc fragment (hFc)
T5 sequence (Q15116 25-167): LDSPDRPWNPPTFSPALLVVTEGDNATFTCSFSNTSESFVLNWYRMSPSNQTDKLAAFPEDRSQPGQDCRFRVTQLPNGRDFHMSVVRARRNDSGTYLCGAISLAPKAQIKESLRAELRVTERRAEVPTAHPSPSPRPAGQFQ

[7] = target: CD28 (human, UniProt P10747 19-152); assay: as above
Target sequence in this assay (P10747 19-152 limits assumed): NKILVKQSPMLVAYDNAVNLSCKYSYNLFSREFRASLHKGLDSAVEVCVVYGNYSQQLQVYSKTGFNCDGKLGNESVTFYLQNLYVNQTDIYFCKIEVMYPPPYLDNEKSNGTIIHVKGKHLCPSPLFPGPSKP

[8] = target: T6, ICOS (human, UniProt Q9Y6W8 21-140, limits assumed); assay: as above
T6 sequence (looked up): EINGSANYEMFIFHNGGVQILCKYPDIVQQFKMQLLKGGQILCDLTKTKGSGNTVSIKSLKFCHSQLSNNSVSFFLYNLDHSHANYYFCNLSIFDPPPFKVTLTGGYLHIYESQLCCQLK

[9] = target: T7, B7.1 (human, UniProt P33681 35-242); assay: as above
T7 sequence (looked up): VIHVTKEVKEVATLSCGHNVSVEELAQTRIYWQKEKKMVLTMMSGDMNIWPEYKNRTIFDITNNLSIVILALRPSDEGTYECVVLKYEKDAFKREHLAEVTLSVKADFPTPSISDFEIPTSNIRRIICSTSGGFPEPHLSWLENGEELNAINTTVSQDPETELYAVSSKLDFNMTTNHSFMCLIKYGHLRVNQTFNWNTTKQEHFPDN

[10] = target: T8, CTLA4 (human, UniProt P16410 37-162, limits assumed); assay: as above
T8 sequence (looked up): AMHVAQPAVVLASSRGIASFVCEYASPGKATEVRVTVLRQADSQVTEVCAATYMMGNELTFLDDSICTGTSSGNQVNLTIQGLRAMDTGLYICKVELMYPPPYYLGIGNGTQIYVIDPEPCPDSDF

[11] = target: T5, human PD-1^ECD-hFc protein (Immunogen A); assay: ELISA, coated human PD-1ECD-hFc
[12] = target: T9, human PD-1^ECD-hFc protein (Immunogen A) (human, UniProt Q15116 25-167); assay: protein-based receptor ligand blocking assay (fully human antibodies), blocked ligand PD-L1
T9 construct: Biotinylated for the Octet assay; also called PD-1-hFc; hPD-1^ECD-hFc; not shown: human IgG Fc fragment (hFc)
Method: Purified PD-1^ECD-hFc (Example 2) was diluted with PBS to a final concentration of 1.0 ug/mL, and 100 uL diluted PD-1^ECD-hFc were added to each well of a 96-well plate that was then sealed with plastic film and incubated at 4° C. overnight. The plate was washed twice with wash buffer (PBS+0.01% (v/v) Tween 20) and incubated with blocking buffer (PBS+[…]) at room temperature for 2 hours. The blocking buffer was aspirated, and 50 uL purified anti-PD-1 antibodies from Example 2 were added to each well of 96-well plate. […] The plate was washed three times with wash buffer (PBS+0.01% (v/v) Tween 20). 100 uL HRP-conjugated streptavidin (Sigma) were then added to each well and incubated at 37° C. for 2 hours. The plate was then washed three times with wash buffer, and 100 uL TMB substrate were added to each well. After 30 minutes of incubation at room temperature, the reaction was stopped by adding 100 uL stop solution (0.1N HCl). The absorbance at OD450 nm was measured with an ELISA plate reader (384plus SpectraMax, Molecular Devices).
T9 sequence (Q15116 25-167): as the sequence (Q15116 25-167) above

[13] = target: T10, ICOS (human, UniProt Q9Y6W8 21-140, limits assumed); assay: ELISA on coated protein (Table 22)
T10 sequence (looked up): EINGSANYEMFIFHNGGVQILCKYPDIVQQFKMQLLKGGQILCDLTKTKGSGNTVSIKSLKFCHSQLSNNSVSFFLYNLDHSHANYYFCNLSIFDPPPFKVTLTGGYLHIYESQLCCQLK

[14] = target: T11, B7-1 (human, UniProt P33681 35-242); assay: ELISA on coated protein (Table 22)
T11 sequence (looked up): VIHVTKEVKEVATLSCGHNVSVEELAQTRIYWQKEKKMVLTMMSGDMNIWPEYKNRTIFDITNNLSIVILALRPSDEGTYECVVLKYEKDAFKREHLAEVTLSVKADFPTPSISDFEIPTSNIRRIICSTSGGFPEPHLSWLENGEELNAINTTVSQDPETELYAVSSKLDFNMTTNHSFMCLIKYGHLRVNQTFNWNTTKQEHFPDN

[15] = target: T12, CTLA4 (human, UniProt P16410 37-162, limits assumed); assay: ELISA on coated protein (Table 22)
T12 sequence (looked up): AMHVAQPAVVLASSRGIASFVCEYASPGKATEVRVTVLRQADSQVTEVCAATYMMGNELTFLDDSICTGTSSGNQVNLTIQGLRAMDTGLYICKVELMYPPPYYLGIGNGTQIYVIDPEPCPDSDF

[16] = target: CD28 (human, UniProt P10747 19-152); assay: ELISA on coated protein (Table 22)
Target sequence in this assay (P10747 19-152 limits assumed): as the sequence (P10747 19-152 limits assumed) above

[17] = target: T13, full length human PD-1 on cells (human, UniProt Q15116 25-288); assay: cell-based receptor ligand blocking assay (fully human antibodies), blocked ligand PD-L1
T13 construct: Also used here for PD-1 on human T cells/PBMC; also called CHO-K1-hPD-1; hPD-1

[18] = target: T9, human PD-1^ECD-hFc protein (Immunogen A); assay: protein-based receptor ligand blocking assay (fully human antibodies), blocked ligand PD-L2

T2 sequence (Q15116 25-167): as the sequence (Q15116 25-167) above
T3 sequence (B0LAJ3 entry or part of it limits assumed): as the sequence (Q15116 25-167) above, with D2E, P10A, V19L, T35A, Q75R counted along it
T1 sequence (Q15116 25-288): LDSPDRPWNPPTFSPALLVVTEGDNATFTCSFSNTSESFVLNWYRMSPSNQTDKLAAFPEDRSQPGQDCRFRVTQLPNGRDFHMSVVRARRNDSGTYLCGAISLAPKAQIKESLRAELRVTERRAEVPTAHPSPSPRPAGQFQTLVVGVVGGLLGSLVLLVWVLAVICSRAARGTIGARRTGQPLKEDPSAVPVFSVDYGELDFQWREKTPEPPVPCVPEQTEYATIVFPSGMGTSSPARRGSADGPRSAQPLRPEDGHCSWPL
T13 sequence (Q15116 25-288 limits assumed): as the sequence (Q15116 25-288) above

EC50 (read off the curve) [1]: ~0.2 nM
Kd [2]: 0.936 nM
koff [2]: 9.35e-05 s⁻¹
kon [2]: 100000 M⁻¹ s⁻¹
MFI at 0 nM [3]: 4.1 MFI
MFI at 0.01 nM [3]: 22.9 MFI
OD450 nm at 0 nM [4]: 0.06 OD450
OD450 nm at 0.0001 nM [4]: 0.06 OD450
OD450 nm at 0.001 nM [4]: 0.08 OD450
OD450 nm at 0.01 nM [4]: 0.2 OD450
OD450 nm at 0.1 nM [4]: 1.06 OD450
OD450 nm at 1 nM [4]: 2.32 OD450
OD450 nm at 10 nM [4]: 2.41 OD450
OD450 nm at 100 nM [4]: 2.45 OD450
OD450 nm [5]: 0.41 OD450
OD450 nm [6]: 3.01 OD450
OD450 nm [7]: 0.1 OD450
OD450 nm [8]: 0.38 OD450
OD450 nm [9]: 0.37 OD450
OD450 nm [10]: 0.32 OD450
OD450 nm at 0 nM [11]: 0.09 OD450
OD450 nm at 0.0001 nM [11]: 0.1 OD450
OD450 nm at 0.001 nM [11]: 0.12 OD450
OD450 nm at 0.01 nM [11]: 0.28 OD450
OD450 nm at 0.1 nM [11]: 1.34 OD450
OD450 nm at 1 nM [11]: 2.47 OD450
OD450 nm at 10 nM [11]: 2.44 OD450
OD450 nm at 100 nM [11]: 2.58 OD450
B1: fully human anti-PD-1 antibody 76G5B3 (antibody, human IgG4 S228P, kappa, V domains shown)
VH: QVQLVESGGGVVQPGRSLRLSCAASGFTFSDYGFHWVRQAPGKGLEWVAVIWYDGSNEYYTDSVKGRFTISRDNSKNTLYLQMNSLRAEDTAMYFCVVNPFDYWGQGTLVTVSS
VL: DIQMTQSPSSLSAFVGDRVTITCRASQGINHYLAWYQQKPGKAPNLLILAASTLLSGVPSRFGGRGSGTDFTLIISSLQPEDVATYYCQKYDSAPYTFGQGTKLEIKR

IC50 (read off the curve) [12]: ~2 nM
binding result [13]: no binding
binding result [14]: no binding
binding result [15]: no binding
binding result [16]: no binding
IC50 (read off the curve) [17]: ~0.3 µg/mL
IC50 (read off the curve) [18]: ~8 nM
B2: fully human anti-PD-1 antibody 76G5B3 (antibody, human IgG4 S228P, kappa, V domains shown)
VH: QVQLVESGGGVVQPGRSLRLSCAASGFTFSDYGFHWVRQAPGKGLEWVAVIWYDGSNEYYTDSVKGRFTISRDNSKNTLYLQMNSLRAEDTAMYFCVVNPFDYWGQGTLVTVSS
VL: DIQMTQSPSSLSAFVGDRVTITCRASQGINHYLAWYQQKPGKAPNLLILAASTLLSGVPSRFGGRGSGTDFTLIISSLQPEDVATYYCQKYDSAPYTFGQGTKLEIKR
notes: also called 76G5B3 (fully human, IgG4 S228P / kappa)

Source: patent US20180214548A1 (SHANGHAI YUNYI HEALTHCARE AND TECHNOLOGY, published 2018)
